According to patent US20220204627A1 (WILLIAM ROBERT ARATHOON LIVING TRUST DATED AUGUST 29 2016, published 2022):

Columns and labels:
[1] = molecular target: T1, EGFR on 293T cells overexpressing EGFR (UniProt P00533 25-1210, limits assumed); experiment: FACS on 293T-EGFR OX cells
T1 construct: whole, on cells

[2] = molecular target: T1, EGFR on 293T cells overexpressing EGFR; experiment: FACS on 293T cells overexpressing EGFR
human CD47 on cells [3] = molecular target: T2, human CD47 on cells (human, UniProt Q08722 19-323); experiment: flow cytometry on 293T_ABCB1_OX cells (anti-CD47 antibody; CD47 is endogenous on 293T cells); 293T_ABCB1_OX cells, endogenous CD47
T2 construct: also called KT14 (target name); leukocyte surface antigen CD47

[4] = molecular target: T3, human CD47-Fc fusion protein (R&D systems) (human, UniProt Q08722 19-141); experiment: ELISA, plate coated with human CD47-Fc; set-up: Bmax: unit not given here
T3 construct: Bought (R&D systems); also called Fc-tagged CD47; not shown: Fc part of the bought fusion protein

[5] = molecular target: T4, cynomolgus CD47 on erythrocytes (cynomolgus, UniProt A0A5F8AK49 19-323 (rhesus entry)); experiment: flow cytometry on cynomolgus red blood cells (cy807 RBC), Alexa Fluor 647 channel
T4 construct: whole, on cells; also called cynomolgus RBCs

human CD47 on cells [6] = molecular target: T2, human CD47 on cells; experiment: flow cytometry on human red blood cells (h408 RBC), Alexa Fluor 647 channel

EC50 [1] | EC50 [2] | EC50 (human CD47 on cells [3]) | Bmax [4] | Kd [4] | R4 (percent of red blood cells in the positive gate R4) [5] | R4 (percent of red blood cells in the positive gate R4) (human CD47 on cells [6]) | Binder
0.13 nM | 0.044 nM |  |  |  |  |  | anti-EGFR antibody necitumumab (antibody, human IgG1, kappa, V domains shown, Heavy chain copied as printed in T0103; also called KT3-2) VH: QVQLQESGPGLVKPSQTLSLICTVSGGSISSGDYYWSWIRQPPGKGLEWIGYIYYSGSTDYNPSLKSRVTMSVDTSKNQFSLKVNSVTAADTAVYYCARVSIFGVGTFDYWGQGTLVTVSS VL: EIVMTQSPATLSLSPGERATLSCRASQSVSSYLAWYQQKPGQAPRLLIYDASNRATGIPARFSGSGSGTDFTLTISSLEPEDFAVYYCHQYGSTPLTFGGGTKAEIKR
 |  | 0.3 nM | 2.78 | 0.00197 nM | 99.8% | 99.9% | anti-CD47 antibody 5F9 (antibody, human IgG1, V domains shown, Variable regions cloned on human IgG1 / human kappa constant regions; also called 5F9/5F9; KT14) VH: QVQLVQSGAEVKKPGASVKVSCKASGYTFTNYNMHWVRQAPGQRLEWMGTIYPGNDDTSYNQKFKDRVTITADTSASTAYMELSSLRSEDTAVYYCARGGYRAMDYWGQGTLVTVSS VL: DIVMTQSPLSLPVTPGEPASISCRSSQSIVYSNGNTYLGWYLQKPGQSPQLLIYKVSNRFSGVPDRFSGSGSGTDFTLKISRVEADVGVYYCFQGSHVPYTFGQGTKLEIK
